This is an account of results in patent US20060153833A1 (Genmab, published 2006).

Assay [1] addresses T1, subtype 1b derived E2 (BK strain) expressed by recombinant Sindbis virus Sinrep/HCV-BK1-1207 (Hepatitis C virus strain BK (genotype …, UniProt P26663 384-746)).
T1 construct: Immunoprecipitated from lysates of infected cells; also called genotype 1b antigen
In words: immunoprecipitation from cells infected with Sinrep/HCV-BK1-1207.

In assay [2] the target is T2, E2 glycoprotein expressed by recombinant vaccinia virus vHCV1-1488 (HCV-H) (Hepatitis C virus strain H (genotype 1a), UniProt P27958 384-746).
T2 construct: 35S-labelled and immunoprecipitated from cell lysates in pulse-chase experiments
In words: pulse-chase immunoprecipitation, reducing SDS-PAGE.

T2 sequence (P27958 384-746 limits assumed): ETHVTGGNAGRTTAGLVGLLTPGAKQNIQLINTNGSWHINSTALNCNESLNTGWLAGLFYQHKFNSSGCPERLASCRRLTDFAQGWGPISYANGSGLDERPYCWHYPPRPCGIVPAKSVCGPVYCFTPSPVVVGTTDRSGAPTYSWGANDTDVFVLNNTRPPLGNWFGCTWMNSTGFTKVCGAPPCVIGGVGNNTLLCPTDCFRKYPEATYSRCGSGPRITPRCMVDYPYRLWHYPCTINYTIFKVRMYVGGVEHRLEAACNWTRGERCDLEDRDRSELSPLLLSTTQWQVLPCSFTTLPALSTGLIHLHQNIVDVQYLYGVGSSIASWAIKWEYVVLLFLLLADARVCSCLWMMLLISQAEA
T1 sequence (P26663 384-746 limits assumed): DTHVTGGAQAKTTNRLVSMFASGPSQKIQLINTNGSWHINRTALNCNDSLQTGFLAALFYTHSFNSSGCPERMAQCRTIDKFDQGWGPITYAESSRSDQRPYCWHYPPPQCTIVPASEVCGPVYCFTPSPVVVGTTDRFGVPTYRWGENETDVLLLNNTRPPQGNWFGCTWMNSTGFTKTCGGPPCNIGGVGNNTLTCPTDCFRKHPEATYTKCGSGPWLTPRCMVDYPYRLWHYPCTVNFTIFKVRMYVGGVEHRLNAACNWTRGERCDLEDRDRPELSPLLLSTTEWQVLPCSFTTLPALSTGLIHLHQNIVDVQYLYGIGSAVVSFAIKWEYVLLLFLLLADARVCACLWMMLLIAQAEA

B1: HMAb 503 (antibody, V domains shown)
VH: QVQLQQWGAGLLKPSETLSLTCAVYGGSLSGYFWTWIRQSPGKGLEWIGESNYSGSTRYNPSLKSRVTISVDTSQNQFSLKLSSVTAADTAVYYCARGWAVDGMDVWGQGTTVTVSS
VL: SYELTQPPSVSVSPGQTARITCSGDALPKQYAYWYQQKPGQAPVLVIYKDNERPSGIPERFSGSRSGTTVTLTISGVQAEDEADYYCQSADSSGSSWVFGGGTKLTVL
notes: also called antibody 503; clone 503
With B1, the binding result in assay [1] and in assay [2] was “binds” in each case.
